Data from patent US20240018189A1 (PROTAGONIST THERAPEUTICS, published 2024).
Positions of bridges follow the written chain, without caps; N, C: chain ends. Non-standard residues stand in square brackets, D forms with d. Groups on a side chain read outwards from the residue. *: point of attachment. PEG12 = NCCOCCOCCOCCOCCOCCOCCOCCOCCOCCOCCOCCOCCC(=O)O; Phe(4-COOH) = N[C@@H](Cc1ccc(C(=O)O)cc1)C(=O)O; Phe(4-tBu) = CC(C)(C)c1ccc(C[C@H](N)C(=O)O)cc1; Phe(4-CN) = N#Cc1ccc(C[C@H](N)C(=O)O)cc1; Dip = N[C@H](C(=O)O)C(c1ccccc1)c1ccccc1; 2Nal = N[C@@H](Cc1ccc2ccccc2c1)C(=O)O; AEF = NCCOc1ccc(C[C@H](N)C(=O)O)cc1; Palmitoyl = CCCCCCCCCCCCCCCC(=O)*; αMeF = C[C@](N)(Cc1ccccc1)C(=O)O; Isovaleryl = CC(C)CC(=O)*; αMeC = C[C@](N)(CS)C(=O)O; Npc = nipecotic acid

B1: Seq. No. 350 (peptide)
peptide: DTHXXCIKFKKC
modifications: N-term isovaleric acid; 4 Dpa; 5 bhPro; 8 (D)Lys; 10 Lys(PEG12_Palm); 11 (D)Lys; C-term NH2
B2: Seq. No. 349 (peptide)
peptide: DTHXPCIKXKKC
modifications: N-term isovaleric acid; 4 Dpa; 8 (D)Lys; 9 bhPhe; 10 Lys(PEG12_Palm); 11 (D)Lys; C-term NH2
B3: RI-Mini Hepcidin (peptide)
peptide: FICIPFHTD
modifications: all residues D-amino acids (DPhe-DIle-DCys-DIle-DPro-DPhe-DHis-DThr-DAsp); Hy- at the N-terminus; C-term NH2
B4: Compd. ID 11 (peptide)
peptide: DTHXPCIKXKC
modifications: not fully specified; N-term isovaleric acid; 4 Dpa; 8 Lys[1Peg2-1Peg2-Ahx-C18_Diacid]; 9 bhPhe; 10 (D)Lys; C-term NH2
B5: Ref. Cmpd. 1 (peptide)
peptide: Isovaleryl-DTHFPCIKFKPRSKGCK-NH2
modifications: disulfide 6-16 (inferred); not fully specified (residue 10); also: K10: Lys[PEG11-Palm] (Lys[2PEG11-Palm]
B6: Compd. ID 10 (peptide)
peptide: DTHXPCIKXKKC
modifications: not fully specified; N-term isovaleric acid; 4 Dpa; 8 Lys[1Peg2-1Peg2-Ahx-C18_Diacid]; 9 bhPhe; 11 (D)Lys; C-term NH2

Biological target: T1, human ferroportin (SLC40A1) fused in frame with GFP (human) (UniProt Q9NP59)
T1 sequence (looked up): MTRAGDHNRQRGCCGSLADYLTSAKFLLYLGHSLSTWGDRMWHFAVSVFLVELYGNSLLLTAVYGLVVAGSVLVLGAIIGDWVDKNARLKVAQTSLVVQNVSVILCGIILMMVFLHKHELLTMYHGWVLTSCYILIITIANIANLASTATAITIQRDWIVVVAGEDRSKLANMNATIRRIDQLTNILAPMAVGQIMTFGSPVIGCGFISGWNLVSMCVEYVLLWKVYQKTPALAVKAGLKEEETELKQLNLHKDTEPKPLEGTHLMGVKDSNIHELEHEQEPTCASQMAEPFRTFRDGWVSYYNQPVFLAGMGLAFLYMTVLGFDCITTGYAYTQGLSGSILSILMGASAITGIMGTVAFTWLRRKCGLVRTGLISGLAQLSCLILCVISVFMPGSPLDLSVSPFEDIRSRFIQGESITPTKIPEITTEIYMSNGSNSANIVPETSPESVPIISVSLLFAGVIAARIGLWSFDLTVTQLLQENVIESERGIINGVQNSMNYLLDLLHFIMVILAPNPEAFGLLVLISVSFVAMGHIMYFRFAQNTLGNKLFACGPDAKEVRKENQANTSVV
Experiment: cell-based or functional assay

Compared with B1, Isovaleryl-DTHFP[αMeC]I[dK]FK([PEG12-Palmitoyl])KC-NH2 (disulfide 6-12 (inferred)) [Seq. No. 353] is 27-fold higher in IC50: FPN internalisation: 0.8 nM for the first, 21.5 nM for the second.

B2 and Isovaleryl-DTH[Dip][Npc]CI[dK]FK([PEG12-Palmitoyl])KC-NH2 (disulfide 6-12 (inferred)) [Seq. No. 360] are within 1.5-fold of each other in IC50: FPN internalisation: 11.2 nM for the first, 9.64 nM for the second.

First: Isovaleryl-DTH[Dip][Npc]CI[dK][Phe(4-CN)]K([PEG12-Palmitoyl])KC-NH2 (disulfide 6-12 (inferred)) [Seq. No. 347]
Second: Isovaleryl-DTH[Dip][Npc]CI[dK][2Nal]K([PEG12-Palmitoyl])KC-NH2 (disulfide 6-12 (inferred)) [Seq. No. 357]
The IC50: FPN internalisation of the first is 2.3-fold higher: 23 nM for the first, 10.2 nM for the second.

Going from Isovaleryl-DTHFP[αMeC]I[dK]FK([PEG12-Palmitoyl])K[αMeC]-NH2 (disulfide 6-12 (inferred)) [Seq. No. 354] to Isovaleryl-DTH[Dip][Npc]CI[dK][αMeF]K([PEG12-Palmitoyl])KC-NH2 (disulfide 6-12 (inferred)) [Seq. No. 348], the IC50: FPN internalisation falls from 10 nM to 2.1 nM (4.8-fold).

Going from Isovaleryl-DTHF[Npc]CI[dK]FK([PEG12-Palmitoyl])[dK]C-NH2 (disulfide 6-12 (inferred)) [Seq. No. 351] to Isovaleryl-DTH[Dip][Npc]CI[dK][Phe(4-tBu)]K([PEG12-Palmitoyl])KC-NH2 (disulfide 6-12 (inferred)) [Seq. No. 359], the IC50: FPN internalisation falls from 13.2 nM to 8.57 nM (1.5-fold).

Isovaleryl-DTHFPCI[dK]FK([PEG12-Palmitoyl])K[αMeC]-NH2 (disulfide 6-12 (inferred)) [Seq. No. 355] and Isovaleryl-DTH[Dip][Npc]CI[dK]FK([PEG12-Palmitoyl])[dK]C-NH2 (disulfide 6-12 (inferred)) [Seq. No. 352] are within 1.5-fold of each other in IC50: FPN internalisation: 7.55 nM for the first, 6.48 nM for the second.

First: Isovaleryl-DTH[Dip][Npc]CI[dK][Phe(4-COOH)]K([PEG12-Palmitoyl])KC-NH2 (disulfide 6-12 (inferred)) [Seq. No. 356]
Second: Isovaleryl-DTH[Dip][Npc]CI[dK][AEF]K([PEG12-Palmitoyl])KC-NH2 (disulfide 6-12 (inferred)) [Seq. No. 358]
The IC50: FPN internalisation of the first is lower: 0.1 nM for the first, > 3000 nM for the second.

With B3 the Potency EC50 (nM) was > 10000 nM.

First: B4
Second: B5
The FPN EC50 of the first is 2.4-fold lower: 12.7 nM for the first, 30 nM for the second.

For B6, the FPN EC50 was 3.05 nM.

For B5, the Potency EC50 was 30 nM.
